# Experimental data from patent US20060150268A1, “Plant-derived transferase genes” (priority 2002, published 2006).
# B1: tobHQT: hydroxycinnamoyl-CoA quinate hydroxycinnamoyl transferase from tobacco, 436 amino acids, SEQ ID NO 2 (protein, listed as Nicotiana tabacum)
# chain: MGSEKMMKINIKESTLVKPSKPTPTKRLWSSNLDLIVGRIHLLTVYFYKPNGSSNFFDSKIMKEALSNVLVSFYPMAGRLARDEQGRIEINCNGEGVLFVEAESDAFVDDFGDFTPSLELRKLIPTVDTSGDISTFPLIIFQVTRFKCGGVSLGGGVFHTLSDGLSSIHFINTWSDIARGLSVAIPPFIDRTLLRARDPPTSSFEHVEYHPPPSLISSSKSLESTSPKPSTTTMLKFSSDQLGLLKSKSKHDGSTYEILAAHIWRCTCKARALSDDQLTKLHVATDGRSRLCPPLPPGYLGNVVFTGTPMAKSSELLQEPLTNSAKRIHSALSKMDDNYLRSALDYLELLPDLSALIRGPTYFASPNLNINSWTRLPVHDSDFGWGRPIHMGPACILYEGTVYILPSPNSKDRNLRLAVCLDADHMPLFEKYLYEF
# B2: hsr201: tobacco hypersensitive response protein 201, a member of the transferase family (protein, UniProt Q8GT20 1-460, looked up)
# Benzyl alcohol …: MDSKQSSELVFTVRRQKPELIAPAKPTPREIKFLSDIDDQEGLRFQIPVIQFYHKDSSMGRKDPVKVIKKAIAETLVFYYPFAGRLREGNGRKLMVDCTGEGIMFVEADADVTLEQFGDELQPPFPCLEELLYDVPDSAGVLNCPLLLIQVTRLRCGGFIFALRLNHTMSDAPGLVQFMTAVGEMARGASAPSILPVWCRELLNARNPPQVTCTHHEYDEVRDTKGTIIPLDDMVHKSFFFGPSEVSALRRFVPHHLRKCSTFELLTAVLWRCRTMSLKPDPEEEVRALCIVNARSRFNPPLPTGYYGNAFAFPVAVTTAAKLSKNPLGYALELVKKTKSDVTEEYMKSVADLMVLKGRPHFTVVRTFLVSDVTRGGFGEVDFGWGKAVYGGPAKGGVGAIPGVASFYIPFKNKKGENGIVVPICLPGFAMETFVKELDGMLKVDAPLDNSNYAIIRPAL
# B3: tomHQT: hydroxycinnamoyl-CoA quinate hydroxycinnamoyl transferase from tomato, 430 amino acids, SEQ ID NO 1 (protein, listed as Lycopersicon esculentum)
# chain: MGSEKMMKINIKESTLVKPSKPTPTKRIWSSNLDLIVGRIHLLTVYFYKPNGSSNFFDNKVIKEALSNVLVSFYPMAGRLGRDEQGRIEVNCNGEGVLFVEAESDSCVDDFGDFTPSLELRKLIPSVETSGDISTFPLVIFQITRFKCGGVALGGGVFHTLSDGLSSIHFINTWSDIARGLSVAVPPFIDRTLLRARDPPTYSFEHVEYHPPPTLNSSKNRESSTTTMLKFSSEQLGLLKSKSKNEGSTYEILAAHIWRCTCKARGLPEDQLTKLHVATDGRSRLCPPLPPGYLGNVVFTATPIAKSCELQSEPLTNSVKRIHNELIKMDDNYLRSALDYLELQPDLSTLIRGPAYFASPNLNINSWTRLPVHECDFGWGRPIHMGPACILYEGTIYIIPSPNSKDRNLRLAVCLDAGHMSLFEKYLYEL
# Legend:
# [1] = system: leaves of Nicotiana benthamiana; assay: Transient expression of HQT in leaves of Nicotiana benthamiana; assay type: in vivo; settings: for HQT enzyme activity in leaves: plants expressing HQT under the control of the 35S promoter (FIG. 6); for amount of chlorogenic acid in vivo in plants: plants expressing HQT under the control of the 35S promoter, HPLC after 4 days (FIG. 6)
# Procedure: Leaves were infiltrated with Agrobacterium tumefaciens C58C1 transformed with the plasmid pGFP, which contains the cDNA encoding GFP under control of the 35S promoter, along with bacteria transformed with either the plasmid p19 which carries a cDNA encoding a gene-silencing protein or the control plasmid pBIN19.
# Soluble phenolics were extracted by vortexing 30 mg of frozen, powdered leaf material in 300 μl of 70% methanol. After addition of 100 μl distilled water, the extract was vortexed again and then spun for 10 sec at 13,000 g to pellet the debris. The supernatant was analysed by gradient HPLC (apparatus from Spectra Physics, San Jose, Calif.) using a Columbus 5-μm C18 column (25 cm×4.6 mm; Phenomenex, Macclesfiled, Cheshire, UK). Solvent A was 1 mM trifluoroacetic acid, solvent B was acetonitrile, and the gradient was run for 65 min at flow rate of 1 ml min^−1 with the following concentrations: 0 min :100% A, 0% B; 50 min: 60% A, 40% B; 60 min: 30% A, 70% B; 65 min: 100% A, 0% B. The column eluant was monitored using a Spctra Fous scanning detector (Spectra Physics). A chlorogenic acid standard (Sigma) was used to quantify the amount of chlorogenic acid in the leaf extracts.
# After the transfer of the overexpression constructs pTom and pTob, and the iRNA constructs pFRNtom and pFRN-tob to Agrobacterium tumefaciens C58C1 (DEBLAERE et al., 1985) single colonies were used for growing 50 mL overnight cultures. Additional 50 ml overnight cultures of Agrobacterium tumefaciens C58C1 containing expression constructs of the green fluorescent protein (PGFP) or the gene silencing inhibitor protein 19 (p19; kindly provided by O. Vionnet) or the empty binary vectors pBIN19 and pFRN were also grown. The cells were precipitated by centrifugation at 4000 g for 20 min and resuspended in 50 ml 10 mM MgCl2. After addition of 50 μl 100 mM acetosyringene the cells were incubated at room temperature overnight. To overexpress HQT similar amounts of the cultures containing pGFP, pTom, pTob were mixed with the same volume of cultures containing either pBIN19 or p19 and each mixture was used to infiltrate three leaves of a Nicotiana benthamiana plant. […] For gene silencing the cultures containing pFRN-tom, pFRN-tob and pFRN were used to infiltrate three leaves of Nicotiana benthamiana.
# [2] = system: HQT enzyme activity (caffeoyl CoA and quinic acid as substrates); assay: HQT enzyme assay with crude extracts from E. coli expressing the recombinant protein; assay type: biochemical, Escherichia coli; settings: recombinant protein expressed in E. coli, decrease of caffeoyl-CoA measured spectrophotometrically (FIG. 5)
# Procedure: As described above, HQT catalyses the production of chlorogenic acid via transfer of the caffeoyl moiety of caffeoyl-CoA to quinic acid. Such activity can be assessed, for example, using the assay described in Example 2. Briefly, the assay uses caffeoyl CoA and quinic acid as substrates, and the rate of conversion of caffeoyl CoA to chlorogenic acid is determined by spectrophotometry.
# The reaction was initiated by adding the substrate quinic acid and the enzyme activity was measured spectrophotometrically as decrease of the amount of caffeoyl-CoA.
# The enzyme activity was determined by spectrophotometry at 30° C. The reaction mixture contained in a total volume of 1 ml: 100 mM Na-Pi buffer pH 7.0, 1 mM EDTA, 16.8 μM caffeoyl CoA and 10-50 μl protein extract. […] The extinction coefficient for caffeoyl CoA is 1.8×10^4 M^−1 cm^−1 (ZENK et al., 1980). The synthesis of caffeoyl CoA was carried out as described previously (SEMLER et al., 1987).
# The full-length cDNA of HQT from tomato was subcloned in frame into the NcoI and BamHI-sites of the expression vector pSTAG under the control of the T7 RNA-Polymerase promoter. This strategy led to the introduction of a sequence encoding an S-TAG at the 5′-end of the cDNA. According to procedures provided by the manufacturer (Novagen), the expression and purification of the fusion protein was carried out using the S-TAG™ Thrombin Purification Kit. The enzyme activity of the purified protein was then analysed in HQT enzyme assays.
molecule,measurement,setting,value
B1,HQT enzyme activity in leaves,[1],Increased HQT enzyme activity
same,amount of chlorogenic acid in vivo in plants,[1],2 fold
B2,HQT enzyme activity,[2],no enzyme activity was detected
same,HQT enzyme activity,[2]; listed as Hsr201,no HQT enzyme activity
B3,HQT enzyme activity,[2],showed HQT enzyme activity
same,HQT enzyme activity in leaves,[1],Increased HQT enzyme activity
same,amount of chlorogenic acid in vivo in plants,[1],2 fold
